Assay results reported in PMC12102759.

B1: MBOAT1 peptide 17-32 (Lysophospholipid acyltransferase 1), 16-mer library wild type / NSP3 ADRP (ORF1ab Nsp3b ADRP, residues 1023-1192) (parent)
chain 1: STYLHPLSELLGIPLD
chain 2: not shown
B2: TET3 peptide 460-475 (Methylcytosine dioxygenase TET3), 16-mer library wild type / NSP3 SUD-M (ORF1ab Nsp3c SUD-M, residues 1356-1493) (parent)
chain 1: MAELEQLLGSASDYIQ
chain 2: LPSIISNEKQEILGTVSWNLREMLAHAEETRKLMPVCVETKAIVSTIQRKYKGIKIQEGVVDYGARFYFYTSKTTVASLINTLNDLNETLVTMPLGYVTHGLNLEEAARYMRSLKVPATVSVSSPDAVTAYNGYLTSS
B3: NEK9 peptide 738-753 (Serine/threonine-protein kinase Nek9), 16-mer library wild type / NSP9 (ORF1ab Nsp9, residues 4141-4253) (parent)
chain 1: SGLSIGTVFQSSSPGG
chain 2: NNELSPVALRQMSCAAGTTQTACTDDNALAYYNTTKGGRFVLALLSDLQDLKWARFPKSDGTGTIYTELEPPCRFVTDTPKGPKVKYLYFIKGLNNLNRGMVLGSLAATVRLQ
B4: NCOA2 peptide 1075-1090 (Nuclear receptor coactivator 2), 16-mer library wild type / NSP3 UBl1 (ORF1ab Nsp3a Ub1, residues 819-925) (parent)
chain 1: DEGALLDQLYLALRNF
chain 2: APTKVTFGDDTVIEVQGYKSVNITFELDERIDKVLNEKCSAYTVELGTEVNEFACVVADAVIKTLQPVSELLTPLGIDLDEWSMATYYLFDESGEFKLASHMYCSFY

Variants of: B1
Conditions: with NSP3 ADRP (ORF1ab Nsp3b ADRP, residues 1023-1192); bait immobilised on MaxiSorp plates (10 µg), library pre-cleared on GST, 2 h binding at 4 °C, five washes; one round per day, days 1-4; value from days 2 and 3; keep out of graded; scale: average fractional NGS count over selection days 2 and 3

| Variant | screen value |
| --- | --- |
| chain 1 S1R | 0 |
| chain 1 S1T | 9.2e-05 |
| chain 1 S1V | 0.000869 |
| chain 1 S1W | 0.000263 |
| chain 1 S1Y | 0.00667 |
| chain 1 S8G | 0 |
| chain 1 S8N | 0 |
| chain 1 T2A | 0.000138 |
| chain 1 T2E | 1.15e-05 |
| chain 1 T2F | 0.00217 |
| chain 1 T2H | 0.000152 |
| chain 1 T2I | 2.27e-05 |
| chain 1 T2K | 0 |
| chain 1 T2L | 0.000208 |
| chain 1 T2Q | 4.36e-05 |
| chain 1 T2R | 0 |
| chain 1 T2S | 5.82e-05 |

| Variant | screen value |
| --- | --- |
| chain 1 T2V | 0.000388 |
| chain 1 T2W | 2.61e-05 |
| chain 1 T2Y | 0.00544 |
| chain 1 Y3A | 0.00112 |
| chain 1 Y3D | 0.000184 |
| chain 1 Y3E | 2.37e-05 |
| chain 1 Y3F | 0 |
| chain 1 Y3G | 0.000695 |
| chain 1 Y3H | 3.26e-05 |
| chain 1 Y3I | 0 |
| chain 1 Y3L | 0 |
| chain 1 Y3M | 0.000117 |
| chain 1 Y3N | 3.37e-05 |
| chain 1 Y3S | 2.54e-05 |
| chain 1 Y3T | 3.8e-05 |
| chain 1 Y3W | 0 |

Variants of: B2
Conditions: with NSP3 SUD-M (ORF1ab Nsp3c SUD-M, residues 1356-1493); bait immobilised on MaxiSorp plates (10 µg), library pre-cleared on GST, 2 h binding at 4 °C, five washes; one round per day, days 1-4; value from days 2 and 3; keep out of graded; scale: average fractional NGS count over selection days 2 and 3

| Variant | screen value |
| --- | --- |
| chain 1 A2H | 3.41e-05 |
| chain 1 A2R | 0 |
| chain 1 A2T | 0 |
| chain 1 A2W | 0 |
| chain 1 A11N | 0 |
| chain 1 A11W | 0 |
| chain 1 D13F | 0 |
| chain 1 D13G | 0 |
| chain 1 D13I | 0 |
| chain 1 D13N | 0 |
| chain 1 D13S | 0 |
| chain 1 E3M | 0 |
| chain 1 E3N | 0 |
| chain 1 E3Q | 0 |
| chain 1 E3T | 0.000884 |
| chain 1 E3W | 6.52e-05 |
| chain 1 E5D | 0.000325 |
| chain 1 E5K | 0 |
| chain 1 E5W | 0 |
| chain 1 I15G | 0 |
| chain 1 I15M | 0 |
| chain 1 I15R | 0 |
| chain 1 L4G | 0 |
| chain 1 L4M | 0 |

| Variant | screen value |
| --- | --- |
| chain 1 L4R | 0 |
| chain 1 L4Y | 0 |
| chain 1 L7N | 0 |
| chain 1 L7P | 0 |
| chain 1 L7Q | 0 |
| chain 1 L7T | 0 |
| chain 1 L8E | 0 |
| chain 1 L8I | 0 |
| chain 1 L8S | 0 |
| chain 1 L8W | 0 |
| chain 1 M1G | 0 |
| chain 1 M1H | 0 |
| chain 1 M1K | 0 |
| chain 1 M1R | 0 |
| chain 1 M1T | 0 |
| chain 1 Q6G | 0 |
| chain 1 Q6K | 0 |
| chain 1 Q6P | 0 |
| chain 1 Q6S | 0 |
| chain 1 Q6Y | 0 |
| chain 1 S10G | 0 |
| chain 1 S12P | 0 |
| chain 1 Y14F | 0 |
| chain 1 Y14T | 0 |

Variants of: B3
Conditions: with NSP9 (ORF1ab Nsp9, residues 4141-4253); bait immobilised on MaxiSorp plates (10 µg), library pre-cleared on GST, 2 h binding at 4 °C, five washes; one round per day, days 1-4; value from days 2 and 3; keep out of graded; scale: average fractional NGS count over selection days 2 and 3

| Variant | screen value |
| --- | --- |
| chain 1 F9E | 0.000224 |
| chain 1 F9K | 0 |
| chain 1 F9N | 9.97e-05 |
| chain 1 F9T | 0 |
| chain 1 F9V | 0.000209 |
| chain 1 G2I | 0 |
| chain 1 G2L | 0 |
| chain 1 G2V | 0 |
| chain 1 G15A | 0 |
| chain 1 G15D | 0 |
| chain 1 G15E | 0 |
| chain 1 G15Q | 4.92e-05 |
| chain 1 G15S | 0 |
| chain 1 G15V | 0.000116 |
| chain 1 G15W | 0 |
| chain 1 I5E | 0 |
| chain 1 L3V | 0.000196 |
| chain 1 L3W | 0 |
| chain 1 P14E | 2.37e-05 |
| chain 1 P14R | 0 |

| Variant | screen value |
| --- | --- |
| chain 1 P14T | 0 |
| chain 1 Q10E | 0.000217 |
| chain 1 Q10I | 0 |
| chain 1 S1D | 0.000541 |
| chain 1 S1E | 2.09e-05 |
| chain 1 S1H | 0 |
| chain 1 S1L | 0 |
| chain 1 S1M | 1.76e-05 |
| chain 1 S1N | 0.000364 |
| chain 1 S1Y | 0 |
| chain 1 S4D | 0 |
| chain 1 S4K | 0 |
| chain 1 S4P | 0 |
| chain 1 S4W | 0 |
| chain 1 S4Y | 0 |
| chain 1 S11A | 0 |
| chain 1 S11D | 2.69e-05 |
| chain 1 S11N | 0 |
| chain 1 S11T | 0 |
| chain 1 S12D | 0 |

| Variant | screen value |
| --- | --- |
| chain 1 S12E | 0 |
| chain 1 S12I | 0 |
| chain 1 S13G | 0 |
| chain 1 S13N | 2.85e-05 |
| chain 1 S13Q | 0 |
| chain 1 S13V | 0 |
| chain 1 T7D | 0 |
| chain 1 T7E | 0.000776 |
| chain 1 T7P | 0.000499 |
| chain 1 T7Q | 0 |
| chain 1 T7S | 0 |
| chain 1 V8A | 3.17e-05 |
| chain 1 V8D | 0.000118 |
| chain 1 V8E | 2.09e-05 |
| chain 1 V8G | 0 |
| chain 1 V8H | 0.000119 |
| chain 1 V8K | 0 |
| chain 1 V8P | 0 |
| chain 1 V8Q | 0.000101 |

Variants of: B4
Conditions: with NSP3 UBl1 (ORF1ab Nsp3a Ub1, residues 819-925); bait immobilised on MaxiSorp plates (10 µg), library pre-cleared on GST, 2 h binding at 4 °C, five washes; one round per day, days 1-4; value from days 2 and 3; keep out of graded; scale: average fractional NGS count over selection days 2 and 3

| Variant | screen value |
| --- | --- |
| chain 1 A4L | 7.15e-06 |
| chain 1 A4Y | 0.00107 |
| chain 1 A12W | 0 |
| chain 1 E2N | 0 |
| chain 1 G3N | 7.33e-06 |
| chain 1 G3R | 2.99e-05 |
| chain 1 L6D | 0 |
| chain 1 L6E | 0 |
| chain 1 L6G | 0 |
| chain 1 L9H | 0 |
| chain 1 L9I | 7.34e-06 |
| chain 1 L9K | 0 |
| chain 1 L9T | 0 |
| chain 1 L9V | 1.9e-05 |
| chain 1 L11F | 0 |
| chain 1 L11M | 0 |
| chain 1 L11Q | 0 |
| chain 1 L11S | 0.000175 |
| chain 1 N15A | 1.68e-05 |
| chain 1 N15F | 0.113 |
| chain 1 N15H | 5.47e-06 |
| chain 1 N15I | 2.73e-05 |
| chain 1 N15L | 0.000158 |
| chain 1 N15V | 0.00016 |
| chain 1 Q8G | 8.24e-06 |
| chain 1 Q8P | 1.57e-05 |
| chain 1 R14D | 0.000475 |
